For experiment [1], the target named is T1, Low Density Lipoprotein Receptor (LDLR), recombinant (UniProt P01130 22-788). The experiment is described as follows: SPR; HBS + 0.05% P20. A general note: Surface plasmon resonance follows binding to a sensor surface in real time, without labels.
The target of experiment [2] is T1, Low Density Lipoprotein Receptor …. The experiment is described as follows: SPR; HBS + 0.005% P20, DMPC complex.
The target is the same in experiment [3]. Put plainly: SPR; HBS + 0.005% P20, peptide.
Experiment [4] has the same target. Put plainly: SPR; HBS + 0.005% P20, DMPC complex. The source holds these as a separate data set.
For experiment [5] the target is unchanged. Put plainly: SPR; HBS + 0.005% P20, peptide. The source holds these as a separate data set.
The next experiment has as its target T-050. The experiment is described as follows: SPR; HBS + 0.05% P20.
The target in a further experiment is T-053. The experiment is described as follows: SPR; HBS + 0.05% P20.
The next experiment concerns the target T-060. Put plainly: SPR; HBS + 0.05% P20.
For a further experiment, the target named is T-119. The experiment is described as follows: SPR; HBS + 0.005% P20, peptide.
The next experiment concerns the target T-077. The experiment is described as follows: SPR; HBS + 0.005% P20, DMPC complex.
For another experiment, the target named is T-071. Put plainly: SPR; HBS + 0.005% P20, DMPC complex.

The term Kd denotes the free concentration of one partner at which half of the binding sites on the other are occupied at equilibrium, for simple one-to-one binding.

Substitutions are numbered along the chain they refer to.

B1: T-044 (peptide)
peptide: LASHLRKLRKRLLRDADDLQKRLAVYQA
As for B1, the Kd in experiment [1] came to 7.97 µM; in experiment [2], 1160 µM.

B2: T-072 (peptide)
peptide: LASHLRKLRKRLLR
B2: the Kd in experiment [1] came to 4.85 µM; in experiment [3], 8.27 µM.

B3: T-118 (peptide)
peptide: LVARLLKELTAAMARLGRDAEDIRGNLFQYFDEVWAMLGQSTEELRVRLASHLRKLRKRLLRDADDLQKRLAVYQA
In the case of B3, the Kd in experiment [1] worked out at 2.72 µM; in experiment [3] it was 0.32 µM; in [4], 94.3 µM.

B4: T-112 (peptide)
peptide: YKDFGERVERALGRQLEMLGQSTEELRVRLASHLRKLRKRLLRDADDLQKRLAVYQA
Regarding B4, the Kd in experiment [1] was found to be 0.72 µM; in experiment [3], 1.14 µM; in [4], 0.17 µM.

B5: T-114 (peptide)
peptide: B4 peptide with Y1L, E9A, G13R, R14E, L16F, M18D
Turning to B5, the results for the equilibrium dissociation constant (Kd) in experiment [1], in [3] and in experiment [4] were 1.27 µM, 2.7 µM and 0.17 µM, respectively.

B6: T-113 (peptide)
peptide: B4 peptide with Y1W, G13R, R14E, L16F, M18D
On to B6, for which the Kd in [1] came out at 1.82 µM; in [3] it was 1.44 µM; in experiment [4], 0.29 µM.

B7: T-066 (peptide)
peptide: LARHLRKLRKRLARSLVSQYFQTVTDYGKDLM
On to B7, for which the Kd came out at 2.42 µM in [1], 2.06 µM in [5] and 0.11 µM in experiment [2].

B8: T-065 (peptide)
peptide: B7 peptide with R3S, A13L
For the molecule B8, the Kd is 0.75 µM in experiment [1], 1.07 µM in experiment [5] and 0.18 µM in [2].

B9: LDLR (receptor)
chain: not shown
Regarding B9, the Kd with T-050 amounted to 528 µM; with T-053 it was 122 µM; with T-060, 150 µM; in the experiment with T-119, 2.31 µM; in the experiment with T-077, 189 µM; with T-071 it was 348 µM.

B10: T-068 (peptide)
peptide: MEDVRGRLVQYRGEVQAMLGQSTEELRVRLASHLRKLRKRLLRDADDLQKRLAVYQA
As for B10, the Kd in experiment [1] came to 1.98 µM; in [5], 1.48 µM; in experiment [2], 0.66 µM.

B11: T-101 (peptide)
peptide: RSGADALESALKELKRFIREWT
For the molecule B11, the Kd in [3] amounted to 11.7 µM.

B12: T-117 (peptide)
peptide: RSGADALESALKELKRFIREWTLGQSTEELRVRLASHLRKLRKRLLRDADDLQKRLAVYQA
In the case of B12, the figures for the Kd in [1], in [3] and in experiment [4] were 4.49 µM, 0.4 µM and 0.01 µM, respectively.

B13: T-115 (peptide)
peptide: DHINKVQRKVTHEIERLFLGQSTEELRVRLASHLRKLRKRLLRDADDLQKRLAVYQA
Consider B13, for which the values for the Kd in [1], in experiment [3] and in [4] were 2.81 µM, 0.42 µM and 0.21 µM, respectively.

B14: T-069 (peptide)
peptide: VRGRLVQYRGEVQAMLGQSTEELRVRLASHLRKLRKRLLRDADDLQKRLAVYQA
For B14, the dissociation constant Kd is 2.39 µM in [1], 1.12 µM in experiment [5] and 0.56 µM in experiment [2].

B15: T-074 (peptide)
peptide: EELRVRLASHLRKLRKRLLR
In the case of B15, the figures for the Kd in experiment [1], in [3] and in experiment [4] were 2.43 µM, 2.37 µM and 77 µM, respectively.

B16: T-116 (peptide)
peptide: DAWERFRALFKELADYFRLGQSTEELRVRLASHLRKLRKRLLRDADDLQKRLAVYQA
Take B16: the figures for the Kd in experiment [1], in experiment [3] and in [4] were 1.21 µM, 4.53 µM and 0.28 µM, respectively.

B17: T-120 (peptide)
peptide: DVKRLLKELTEAMAELARKAEDIRGNLDQYFRKVFAMLGQSTEELRVRLASHLRKLRKRLLRDADDLQKRLAVYQA
As for B17, the Kd in [1] was 11.8 µM; in experiment [3], 0.8 µM.

B18: T-109 (peptide)
peptide: HLRKLRKRLLRSLVSQYFQTVTDYGKDL
Regarding B18, the Kd in [1] amounted to 1.2 µM; in [3], 3.15 µM; in [4], 1.05 µM.

B19: T-110 (peptide)
peptide: HLRKLRKRLLRSLVSQYRQTVTDYGKDL
With B19, the Kd in experiment [1] worked out at 1.15 µM; in experiment [3] it was 2.97 µM; in [4], 1.2 µM.

B20: T-046 (peptide)
peptide: LASHLRKLRKRLLRDADDLQKRLAVYQAGAREGAER
Take B20: the Kd in [1] turned out to be 3.56 µM; in experiment [5], 6.72 µM; in experiment [2], 56.3 µM.

B21: T-047 (peptide)
peptide: B20 peptide with S3R, L13A
Take B21: the Kd in experiment [1] came out at 3.26 µM.

B22: T-111 (peptide)
peptide: HLRKLVKRLLRSLVSQYRQTVTDYGEDL
Turning to B22, the values for the Kd in experiment [1], in experiment [3] and in [4] were 1.06 µM, 2.98 µM and 0.46 µM, respectively.

B23: T-087 (peptide)
peptide: DAWERFRALFKELADYFR
For B23, the Kd in [3] came out at 2.27 µM.

B24: T-049 (peptide)
peptide: LARHLRKLRKRLARDGDKLQDRLAEYQARAKEAFDR
For the molecule B24, the Kd in [1] was 3.26 µM.

B25: T-048 (peptide)
peptide: B24 peptide with R3S, A13L
With B25, the Kd in experiment [1] was found to be 5.24 µM; in experiment [2], 666 µM.

B26: T-052 (peptide)
peptide: HLRKLRKRLLRDGDKLQKRLAEYQARAKEAFDR
As for B26, the results for the Kd in experiment [1], in experiment [5] and in experiment [2] were 1.75 µM, 1.18 µM and 202 µM, respectively.

B27: T-041 (peptide)
peptide: B26 peptide with K4R, K7R, K18D
B27: the Kd in [1] is 7.49 µM; in [5], 701 µM.

B28: T-040 (peptide)
peptide: B26 peptide with K18D
Regarding B28, the dissociation constant (Kd) in [1] amounted to 5.54 µM; in experiment [5], 882 µM.

B29: T-062 (peptide)
peptide: B26 peptide with Q17Y, K18D, Q24Y
For B29, the Kd was found to be 2.23 µM in [1], 9.36 µM in [5] and 52.9 µM in [2].

B30: T-064 (peptide)
peptide: B26 peptide with G13A, K15D
As for B30, in [1], the equilibrium dissociation constant (Kd) worked out at 6.81 µM.

B31: T-059 (peptide)
peptide: B26 peptide with R6V, L10F, K18D
Take B31: the Kd in experiment [1] is 7.27 µM; in [5] it was 7.72 µM.

B32: T-055 (peptide)
peptide: B26 peptide with K18D, K28R
On to B32, for which the Kd in experiment [1] is 5.09 µM.

B33: T-070 (peptide)
peptide: LVQYRGEVQAMLGQSTEELRVRLASHLRKLRKRLLRDADDLQKRLAVYQA
For B33, the Kd in experiment [5] amounted to 1.38 µM; in experiment [2], 0.68 µM.

The record behind these values is US20260115250A1 (published 2026).
